Source: US20060057632A1 (KEIO UNIVERSITY, published 2006)

Molecular target: T1, peptide TM1 (N'-TRVTSFLDWIHEQMERDLKT-C')
T1 construct: Peptide antigen coated on the plate
T1 peptide: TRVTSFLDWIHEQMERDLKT
Assay: binding implied by the name and by sequencing of ELISA positive clones (phage ELISA on coated TM1); not said in so many words

B1: TM1 scFV (scFv)
scFv: ETTLTQSPSSLSASVGDRVTITCRTSQTINNYLNWYQQKPGKAPKVLIFGASRLQSGVPSRFSGSGSGTHFTLTITSLQPEDVATYYCQQSYGTPYTFGQGTKVEIKVDITSYNVYYTKLSLEQVQLQQWGAGLLKPSETLSLTCAIYNGSFGGYYWNWIRQPPGKGLEWIGEINQRESTNFNPSFKSRVTMSVDTSNNQFSLRLSSLTAADTAVYFCARGLYYDTTGFFDAFAVWGQGTTVTVSHLGLMGHHHHHH
binding result: binds
